According to US7772181B2, “Personal care compositions comprising modified variant Bowman Birk Protease Inhibitors” (Danisco US Inc., priority 2008, dated 2010):
One block for each molecule: values may come before it.

Assays:
[1] = target: T1, bovine pancreatic trypsin (Bos taurus, UniProt P00760); assay: Shake flask screen: trypsin inhibition after growth, 2-mercaptoethanol activation and acid/heat treatment; type: biochemical; conditions: when not activated
T1 construct: purchased Worthington (Worthington Biochemical Corp.)
T1 sequence (P00760 24-246): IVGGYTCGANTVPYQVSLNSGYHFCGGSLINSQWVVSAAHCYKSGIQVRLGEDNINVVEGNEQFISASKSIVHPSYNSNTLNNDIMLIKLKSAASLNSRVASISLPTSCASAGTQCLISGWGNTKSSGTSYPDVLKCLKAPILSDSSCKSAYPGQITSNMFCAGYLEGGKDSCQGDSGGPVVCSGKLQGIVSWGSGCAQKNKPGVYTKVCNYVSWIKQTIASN

VegF = target: T2, VegF (UniProt P15692); assay: BioVeris electrochemiluminescence competition binding assay, VEGF; conditions: for competition with Anti-VegF antibody for binding to VegF (ECL signal): labeled Anti-VegF antibody, biotinylated VegF
T2 sequence (P15692 207-395): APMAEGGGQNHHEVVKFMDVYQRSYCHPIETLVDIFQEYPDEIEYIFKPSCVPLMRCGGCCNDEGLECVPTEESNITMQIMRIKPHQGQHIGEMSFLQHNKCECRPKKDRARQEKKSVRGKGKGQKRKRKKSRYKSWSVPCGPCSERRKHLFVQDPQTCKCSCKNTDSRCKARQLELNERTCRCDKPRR
Description: Briefly, after cleavage, the pH of the cleaved sample was adjusted to 5.5, the sample was then loaded onto the column (equilibrated with 25 mM MES pH 5.5). The free 2BBIck81 was washed through the column using 25 mM sodium acetate pH 5.0 while the BCE103 catalytic core remained bound to the resin. The 2BBIck81 fraction was concentrated by ultrafiltration and analyzed using an electrochemiluminescence (ECL) based binding assay (BioVeris). The Anti-VegF antibody (Santa Cruz) and VegF (PeproTech) were labeled with the electrochemiluminescent dye and biotin, respectively, as described by the manufacturer (BioVeris). All materials were in Dulbecco's PBS (Mediatech) supplemented with 0.1% TWEEN®-80. An initial dilution series of Anti-VegF antibody (125, 250 and 500 ng/ml) and VegF (100, 150, 200 and 250 ng/ml) were tested in the binding assay to determine the concentrations of each that would give a robust ECL signal.
For testing 2BBIck81 binding, 50 μL of 500 ng/ml ECL labeled Anti-VegF antibody, 50 μL of 250 ng/ml biotinylated VegF and 100 μL 2BBIck81 (series of 12.5, 15, 31.25, 62.5, 125, 250 or 500 ng/ml) were incubated at room temperature for 2 h with shaking. Then, 50 μL of 0.2 mg/ml streptavidin coated beads were added and the reaction was incubated at room temperature for 30 minutes. The ECL signal was measured using a BioVeris M8/384 Analyzer as described by the manufacturer (BioVeris).
(§1) The resulting vectors were used to transform B. subtilis BG6006 host cells. Cultures were grown in 500 ml of MBD medium and the BBI species were purified essentially as described above and by Vogtentanz et al., 2007 (Protein Expr Purif 55:40-52 [2007]). BioVeris binding assays were performed essentially as outlined in Example 5 and by the manufacturer. Binding of the modified variant BBIs to their respective target proteins was measured using a BioVeris® binding assay, which is a competition assay that determines the binding of the modified variant BBIs to its target protein (e.g. VEGF, FGF5, TGFβ and TNFα) in the presence or absence of a labeled competitor. The competitor can be a labeled monoclonal antibody raised against the target protein or a labeled native receptor of the target protein. The electrochemiluminescent binding assays were performed essentially as described in Example 5. The apparent IC50s were determined from binding data by determining the concentration of the BBI species needed to reduce the BioVeris signal by one half. BBI scaffolds without the target binding peptide in the chymotrypsin inhibitory loop were used as negative controls.

[2] = target: T1, bovine pancreatic trypsin; assay: Trypsin inhibitory assay (BBI activity); type: biochemical
Description: (§2) Trypsin inhibitory assays were performed in Assay Buffer to determine the BBI activity. Specifically, a standard curve was generated by making eleven 1:1 serial dilutions (100 μL BBI+100 μL Assay Buffer) of a 2 μg/mL standard BBI solution. The BBI standard was purified from a 1 mg/ml Trypsin-Chymotrypsin Inhibitor (Sigma Cat. #T-9777) solution in 20 mM MES pH 6.0 using a hydrophobic interaction column (POROS HP2, Phenyl column, Applied Biosystems). The column was equilibrated with 20 mM MES pH 6.0, loaded with 5 mg of the inhibitor, washed with the equilibration buffer, and then the BBI was eluted with water. Unknown BBI samples to be tested in the inhibitory assay were diluted as necessary, so that two or more data points would fall within the standard curve (usually 1:10, 1:100, 1:200, 1:1000, 1:2000 sample dilutions were tested and then the dilutions fine tuned if necessary). […] After the incubation, 100 μL of the 0.5 mg/ml trypsin substrate (diluted in Assay Buffer from a 100 mg/ml solution in DMSO), Suc-AAPR-pNA (succinyl-Ala-Ala-Pro-Arg-para-nitroanilide, Bachem), was added, mixed and the OD (A405) was monitored for 15 min, with 1 time point recorded every 12 sec using a Spectra Max 250 (Molecular Devices). […] The BBI concentration of the unknown samples was calculated from the standard curve. Alternatively, the BBI activity was measured using the same protocol but by determining bovine pancreatic chymotrypsin (Worthington) inhibition (chymotrypsin was used at the same concentration as trypsin and chymotrypsin activity was measured by adding 100 μL of a 0.4 mg/ml chymotrypsin substrate, succinyl-Ala-Ala-Pro-Phe-para-nitroanilide, Bachem).
The relative concentration of active control and modified BBIt-AV's was determined by a trypsin inhibitory assay using purified sBBI as a standard as described above. For some samples, the active BBI concentration was measured by residual trypsin activity according to the method described by Flecker (Flecker, P. FEBS Lett. 252:153-157 [1989]; Vogtentanz et al. supra). […]

human CD4+ T cells = assay: i-mune assay for peptide T-cell epitopes; type: cell-based
Description: The i-mune® assay was performed for the identification of peptide T-cell epitopes in wild type BBI using naïve human T-cells, as described in WO9953038A2 and Stickler et al, 2000 (J. Immunotherapy, 23(6), 654-660, [2000]). Peptides for use in the assay were prepared based on the wild-type BBI amino acid sequence […] CYEPCKPSEDDKEN (SEQ ID NO:13). From the full length amino acid sequence of BBI, 15mer peptides were synthetically prepared by Mimotopes US West (San Diego, Calif.). Each 15mer peptide sequence was designed to overlap with the previous and subsequent 15mer, except for three residues. The 20 peptides used to screen for T-cell epitopes, corresponding to wild type BBI sequence, were:
Briefly, human CD4+ T cells were co-cultured with dendritic cells and peptide for the intact peptide set, using the peptides shown in Figure Y. Cytokine responses were averaged within each experiment as described in Strickler et al, 2000 and a response to a peptide was tabulated as positive if the stimulation index (SI) was greater than 2.95 (FIG. 18A). SI values for each donor were compiled for each peptide set and the percent of donors responsive to each peptide is shown in FIG. 18B. The percent background response, 2.89%, was determined as the average percent responders over all the peptides in the set. The standard deviation for this dataset was 2.21%. Major epitopes are defined as having a percentage response that is 3-fold or more than the background.

[3] = target: T3, bovine pancreatic chymotrypsin (Bos taurus, UniProt P00766); assay: Chymotrypsin inhibition assay (BBI activity); type: biochemical; conditions: BCE103 fusion protein in cell free broth
T3 construct: purchased Worthington
Description: as §2, with “water.” for “water. Unknown BBI samples to be tested in the inhibitory assay were diluted as necessary, so that two or more data points would fall within the standard curve (usually 1:10, 1:100, 1:200, 1:1000, 1:2000 sample dilutions were tested and then the dilutions fine tuned if necessary).”

TGFβ = TGFβ (Homo sapiens, UniProt P01137); assay: BioVeris competition binding assay, TGFβ; conditions: Target protein TGFβ1, concentration reducing BioVeris signal by one half, read-out: BioVeris Binding (apparent IC50)
Description: as §1

Sequence of TGFβ (P01137 279-390): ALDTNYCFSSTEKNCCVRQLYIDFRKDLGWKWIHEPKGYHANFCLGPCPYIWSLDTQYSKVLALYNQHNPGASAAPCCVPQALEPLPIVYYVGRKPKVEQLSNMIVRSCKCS

B1: D1C: BBIt-AV (SEQ ID NO:187) with single substitution D1C (protein)
chain: CDESSKPCCDQCACTKSNPPQCRCSDMRLNSCHSACKSCACYNLYGWTCFCVDITDFCYEPCKPSE
modifications: synthetic BBIt-AV sequence
BBIt-AV yield after acid/heat treatment relative to unmodified BBIt-AV [1]: improved yields after acid/heat treatment

B5: PEN3-Q-BBIt-TGF-A40L-F50N (SEQ ID NO: 677) (protein)
chain: PSESSKPCCDQCACTKSIPPQCRCTDVRLNSCHSACSSCACYNLYGWTCVCVDMKDFCYEPCK
modifications: synthetic BBdb-AV sequence
IC50 (TGFβ): 10 to 50 µM

Second part, led by results:

competition with Anti-VegF antibody for binding to VegF (ECL signal) (VegF): shown to compete | activity of the BBI (trypsin inhibition) relative to fusions to the wild-type BBI ([2]; BCE103 fusion protein in cell free broth): about two fold less
B2: BBI-AV: BBI with VEGF binding peptide CK37281 replacing the chymotrypsin inhibitory loop, SEQ ID NO:186 (protein)
chain: DDESSKPCCDQCACTKSNPPQCRCSDMRLNSCHSACKSCACYNLYGWTCFCVDITDFCYEPCKPSEDDKEN
modifications: synthetic BBI-AV sequence
competition for VegF binding compared with synthesized CK37281 peptide (VegF): better than the synthesized CK37281 peptide itself | competition with Anti-VegF antibody for binding to VegF (ECL signal) (VegF; listed as 2BBIck81): competed with the Anti-VegF antibody for binding to VegF at micromolar concentrations

activated trypsin inhibitory activity, % of expected based on BCE103 cellulase concentration ([2]; 2 mM BME and 0.2 mM GSSG, about 24 h, room temperature): 70-100% | activity of the BBI after growth versus expected from BCE103 cellulase activity ([2]; cell free supernatants, trypsin or chymotrypsin inhibition, before activation): 5-20 times lower
B3: BBI: soybean Bowman-Birk protease inhibitor from Glycine max, major mature form, SEQ ID NO:13 (protein)
chain: DDESSKPCCDQCACTKSNPPQCRCSDMRLNSCHSACKSCICALSYPAQCFCVDITDFCYEPCKPSEDDKEN
modifications: Glycine max
immunogenicity potential in humans (human CD4+ T cells): low immunogenicity potential | percent background response (average percent responders over all the peptides) (human CD4+ T cells; 20 overlapping 15mer peptides, 71 donors): 2.89% | peptide T-cell epitope responses (human CD4+ T cells; stimulation index > 2.95 positive, major epitope 3-fold or more over background): none of the peptide responses were significant

activity of the BBI (chymotrypsin inhibition) relative to fusions to the wild-type BBI [3]: about two fold less
B4: 1 BBIck81: BBI with the CK37281 peptide in the trypsin loop (protein)
chain: DDESSKPCCDQCACYNLYGWTCRCSDMRLNSCHSACKSCICALSYPAQCFCVDITDFCYEPCKPSEDDKEN
competition with Anti-VegF antibody for binding to VegF (ECL signal) (VegF): also competed with the Anti-VegF antibody
